{"source": "paper PMC9129000", "about": "“RADA-dependent branch migration has a predominant role in plant mitochondria and its defect leads to mtDNA instability and cell cycle arrest”", "binders": {"B1": {"name": "EMSA ssDNA (ssDNA)", "DNA": "GACGCTGCCGAATTCTACCAGTGCCTTGCTAGGACATCTTTGCCCACCTGCAGGTTCACCC"}}, "biological_target": "T1, RADA K201A (Arabidopsis thaliana, UniProt F4K8X8 49-627, K201A)", "T1 sequence": "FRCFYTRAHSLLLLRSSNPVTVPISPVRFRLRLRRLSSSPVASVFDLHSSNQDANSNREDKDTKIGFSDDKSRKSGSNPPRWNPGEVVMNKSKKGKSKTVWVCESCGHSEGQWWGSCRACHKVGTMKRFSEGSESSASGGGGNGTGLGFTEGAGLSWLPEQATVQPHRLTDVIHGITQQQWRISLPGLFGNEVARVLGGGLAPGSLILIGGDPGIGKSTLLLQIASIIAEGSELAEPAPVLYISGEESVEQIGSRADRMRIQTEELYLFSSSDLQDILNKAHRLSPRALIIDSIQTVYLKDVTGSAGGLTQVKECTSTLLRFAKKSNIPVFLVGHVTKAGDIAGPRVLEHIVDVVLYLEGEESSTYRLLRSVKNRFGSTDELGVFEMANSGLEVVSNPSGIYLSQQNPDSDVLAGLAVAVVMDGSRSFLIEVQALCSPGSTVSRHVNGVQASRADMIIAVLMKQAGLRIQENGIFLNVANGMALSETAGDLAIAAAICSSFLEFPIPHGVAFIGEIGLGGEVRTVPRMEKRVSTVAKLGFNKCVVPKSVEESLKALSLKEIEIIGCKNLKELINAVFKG", "test": "EMSA; affinity comparable to WT; 20 mM Tris-HCl pH 7.5, 50 mM KCl, 5 mM MgCl2, 0.5 mM EDTA, 10% glycerol, 1 mM DTT, protease inhibitors; 20 C, 20 min; 8 or 4.5% PAGE in TBE at 4 C", "details": "protein: recombinant; tags: N-terminal His (pET28a); chain copies: 6; label: 5'-32P; single strand"}
{"binder": "B1", "values": [{"measurement": "binding result", "result": "binds"}]}
